The values that follow come from article PMC9283540.

As a reminder, the Kd is the concentration at which binding is half-saturated. Low readings indicate tighter binding, high ones weaker binding.

The target in series [1] is TipsytheTRex immunity repressor (WT of study stock) (Mycobacteriophage TipsytheTRex (cluster A)) (UniProt A0A2D1GKF7). Kind of series: EMSA. The note with it: 0.25 uM labeled DNA; EMSA: 20 mM Tris pH 7.0, 25 mM NaCl, 1 mM DTT, 100 ug/mL BSA, 5% glycerol, 0.25 uM FAM-DNA, room temperature 30 min, 5% native gel in 1x TAE. (In general: A gel shift assay detects complexes by their altered migration in electrophoresis.)

Series [2] has as its target TipsytheTRex repressor D104A (Mycobacteriophage TipsytheTRex (cluster A)) (UniProt A0A2D1GKF7). The series can be described thus: EMSA. The following applies: 0.25 uM labeled DNA; ~3.5-fold weaker than WT; EMSA: 20 mM Tris pH 7.0, 25 mM NaCl, 1 mM DTT, 100 ug/mL BSA, 5% glycerol, 0.25 uM FAM-DNA, room temperature 30 min, 5% native gel in 1x TAE.

“ACGGCCCGCTTGACAGCCACCGAAACATCC (double strand) [30-bp optimal]”: the Kd in series [1] is 59 nM; in series [2], 207 nM.
